Experimental data as given in patent US20240263193A1 (published 2024).

T1: CP5-46-4D5E
T1 peptide: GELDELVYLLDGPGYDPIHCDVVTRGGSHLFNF

B1: ALFA-Bcl dual input iADAR (other)
chain: MASNFTQFVLVDNGGTGDVTVAPSNFANGIAEWISSNSRSQAYKVTCSVRQSSAQNRKYTIKVEVPKGAWRSYLNMELTIPIFATNSDCELIVKAMQGLLKDGNPIPSAIAANSGIYGGSGSGAGSGSPAGGGAPGSGGGSTGAPPNLWAAQRYGRELRRMSDEFVDSFKKASQLHLPQVLADAVSRLVLGKFGDLTDNFSSPHARRKVLAGVVMTTGTDVKDAKVISVSTGTKCINGEYMSDRGLALNDCHAEIISRRSLLRFLYTQLELYLNNKDDQKRSIFQKSERGGFRLKENVQFHLYISTSPCGDARIFSPHEPILEEPAASGSGPGRLEEELRRRLSPGTGDRHPNRKARGQLRTKIESGQGTIPVRSNASIQTWDGVLQGERLLTMSCSDKIARWNVVGIQGSLLSIFVEPIYFSSIILGSLYHGDHLSRAMYQRISNIEDLPPLYTLNKPLLSGISNAEARQPGKAPNFSVNWTVGDSAIEVINATTGKDELGRASRLCKHALYCRWMRVHGKVPSHLLRSKITKPNVYHESKLAAKEYQAAKARLFTAFIKAGLGAWVEKPTEQDQYSLTGSGGTAEVQLQESGGGLVQPGGSLRLSCTASGVTISALNAMAMGWYRQAPGERRVMVAAVSERGNAMYRESVQGRFTVTRDFTNKMVSLQMDNLKPEDTAVYYCHVLEDRVDSFHDYWGQGTQVTVSSGAGSGASSNRELVVDFLSYKLSQKGYSWSQFSDVEENRTEAPEGTESEMETPSAINGNPSWHLADSPAVNGATGHSSSLDAREVIPMAAVKQALREAGDEFELRYRRAFSDLTSQLHITPGTAYQSFEQVVNELFRDGVNWGRIVAFFSFGGALCVESVDKEMQVLVSRIAAWMATYLNDHLEPWIQENGGWDTFVELYGNNGSSELIKENMHMKLYMEGTVDNHHFKCTSEGEGKPYEGTQTMRIKVVEGGPLPFAFDILATSFLYGSKTFINHTQGIPDFFKQSFPEGFTWERVTTYEDGGVLTATQDTSLQDGCLIYNVKIRGVNFTSNGPVMQKKTLGWEAFTETLYPADGGLEGRNDMALKLVGGSHLIANIKTTYRSKKPAKNLKMPGVYYVDYRLERIKEANNETYVEQHEVAVARYCDLPSKLGHKLN
B2: NS4A/NS3 (Genotype 1B) (enzyme)
chain: GSVVIVGRIILSGSGSITAYSQQTRGLLGCIITSLTGRDKNQVEGEVQVVSTATQSFLATCVNGVCWTVYHGAGSKTLAGPKGPITQMYTNVDQDLVGWQAPPGARSLTPCTCGSSDLYLVTRHADVIPVRRRGDSRGSLLSPRPVSYLKGSSGGPLLCPSGHAVGIFRAAVCTRGVAKAVDFVPVESMETTMRS

Legend:
EGFP(R96M)-AlfaTag = experiment: cell-based or functional assay
CP5-46-4D5E = target: T1, CP5-46-4D5E; experiment: cell-based or functional assay

Row | Binder | median relative fluorescence of the 4xUAG-MS2 reporter, A-1331852 plus EGFP(R96M)-AlfaTag against A-1331852 alone, HEK293FT, flow cytometry (EGFP(R96M)-AlfaTag) [fold] | fold change of the grazoprevir treated iADAR compared to DMSO treated, unmutated Pep-NS3 system, 4xUAG MS2 reporter, HEK293FT, flow cytometry (intramolecular pair) (CP5-46-4D5E) [fold] | ratio of mNeonGreen to mCherry (mNG/mCh), 2 µM grazoprevir against no drug, HEK cells, microscopy (intramolecular pair) (CP5-46-4D5E) [fold]
1 | B1 | ~110 |  | 
2 | B2 |  | ~31 | ~18
